Literature values as cited in publication PMC6389997.

Tests used:
Details in all cases: cited from earlier work
[1] = target: sigma32 (Escherichia coli) (UniProt P0AGB3)
[2] = target: Im7 (unfolded-like) (Escherichia coli) (UniProt Q03708)
[3] = target: Im7 (intermediate-like) (Escherichia coli) (UniProt Q03708)
[4] = target: Im7 (folded) (Escherichia coli) (UniProt Q03708)
Im7 (folded) (Escherichia coli), sequence (Q03708 whole entry): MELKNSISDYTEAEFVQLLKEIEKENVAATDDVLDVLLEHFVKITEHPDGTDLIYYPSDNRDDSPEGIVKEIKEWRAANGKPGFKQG

Spy, sequence (P77754 24-161): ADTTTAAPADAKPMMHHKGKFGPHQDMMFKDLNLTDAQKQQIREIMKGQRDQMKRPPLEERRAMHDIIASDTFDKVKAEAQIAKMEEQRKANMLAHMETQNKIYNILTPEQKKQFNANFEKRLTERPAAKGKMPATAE
DnaK, sequence (P0A6Y8 2-638): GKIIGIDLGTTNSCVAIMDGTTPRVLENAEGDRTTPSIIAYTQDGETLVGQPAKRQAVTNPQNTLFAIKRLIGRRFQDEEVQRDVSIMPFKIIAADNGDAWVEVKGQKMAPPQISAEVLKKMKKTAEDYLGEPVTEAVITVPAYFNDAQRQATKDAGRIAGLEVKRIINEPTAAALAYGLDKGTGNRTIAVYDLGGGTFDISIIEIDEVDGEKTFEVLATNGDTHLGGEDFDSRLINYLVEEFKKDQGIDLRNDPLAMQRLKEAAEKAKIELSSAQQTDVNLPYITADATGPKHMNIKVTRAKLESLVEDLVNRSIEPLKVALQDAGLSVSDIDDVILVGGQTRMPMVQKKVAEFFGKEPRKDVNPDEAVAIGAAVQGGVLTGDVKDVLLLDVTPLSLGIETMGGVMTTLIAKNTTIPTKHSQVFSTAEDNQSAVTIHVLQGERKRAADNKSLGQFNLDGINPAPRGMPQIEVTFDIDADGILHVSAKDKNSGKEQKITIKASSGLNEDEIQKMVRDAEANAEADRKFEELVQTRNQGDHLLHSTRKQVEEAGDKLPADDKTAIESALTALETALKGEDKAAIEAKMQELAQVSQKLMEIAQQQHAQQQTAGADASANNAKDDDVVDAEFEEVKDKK
Im7 (unfolded-like) (Escherichia coli), sequence (Q03708 whole entry): as the sequence (Q03708 whole entry) above
Im7 (intermediate-like) (Escherichia coli), sequence (Q03708 whole entry): as above
sigma32 (Escherichia coli), sequence (P0AGB3 whole entry): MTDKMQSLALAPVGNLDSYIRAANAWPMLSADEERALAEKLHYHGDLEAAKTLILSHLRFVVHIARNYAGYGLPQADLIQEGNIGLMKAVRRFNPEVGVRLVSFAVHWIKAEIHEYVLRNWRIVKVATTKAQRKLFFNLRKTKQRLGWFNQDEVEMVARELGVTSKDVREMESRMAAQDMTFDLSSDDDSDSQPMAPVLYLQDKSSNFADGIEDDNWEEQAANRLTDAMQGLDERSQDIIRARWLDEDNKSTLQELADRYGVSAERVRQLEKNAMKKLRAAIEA

Substance	Kd [1]	Kd [2]	Kd [3]	Kd [4]
DnaK (from UniProt P0A6Y8)	1.4 µM			
Spy (from UniProt P77754)		10.4 µM	3.5 µM	20.5 µM
